Measured values reported in paper PMC10379010, “Short Peptides of Innate Immunity Protein Tag7 (PGLYRP1) Selectively Induce Inhibition or Activation of Tumor Cell Death via TNF Receptor” (International Journal of Molecular Sciences, 2023).

Biological target: T1, soluble TNFR1 receptor domain (sTNFR1) (UniProt P19438 30-211, fluorescently labeled with Alexa Fluor 633 or Alexa Fluor 488 in the MST only)
T1 construct: TNF receptor TNFR1, soluble extracellular domain (sTNFR1); also called soluble TNFR1 site; source: recombinant, obtained as described in [10], purified
T1 sequence (looked up): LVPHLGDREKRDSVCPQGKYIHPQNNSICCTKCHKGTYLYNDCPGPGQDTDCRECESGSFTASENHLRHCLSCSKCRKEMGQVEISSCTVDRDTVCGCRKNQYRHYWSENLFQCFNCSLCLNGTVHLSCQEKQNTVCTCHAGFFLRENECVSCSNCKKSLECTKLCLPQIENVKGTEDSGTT
Assay: MST; sTNFR1 or Hsp70 labeled with Alexa Fluor 633 or 488 (200 nM), 20 min in the dark at room temperature with 16 concentrations of each compound; Monolith NT 115, IR laser power 10%; apparent Kd; triplicate
Conditions: both partners purified

Binder | Kd [nM]
HRDVQRT (Not biotinylated; used in the MST and the cytotoxicity tests; source: synthetic peptide (Fmoc, HPLC purified)) [peptide 17.1A] | 5.44
Tag7 protein (PGLYRP1) (natural protein, UniProt O75594 22-196, looked up, Tag7 (PGLYRP1), innate immunity protein; also called full-sized Tag7 protein; source: recombinant, obtained as described in [10]) QETEDPACCSPIVPRNEWKALASECAQHLSLPLRYVVVSHTAGSSCNTPASCQQQARNVQHYHMKTLGWCDVGYNFLIGEDGLVYEGRGWNFTGAHSGHLWNPMSIGISFMGNYMDRVPTPQAIRAAQGLLACGVAQGALRSNYVLKGHRDVQRTLSPGNQLYHLIQNWPHYRSP | 43.2
